Measurements reported in patent US20110223176A1 (AbbVie / Abbott, published 2011).

Tests used:
[1] = biological target: T1, human BSG2 (basigin isoform 2) on the cell surface (human, UniProt P35613 140-385); test: cell-based or functional assay
T1 sequence: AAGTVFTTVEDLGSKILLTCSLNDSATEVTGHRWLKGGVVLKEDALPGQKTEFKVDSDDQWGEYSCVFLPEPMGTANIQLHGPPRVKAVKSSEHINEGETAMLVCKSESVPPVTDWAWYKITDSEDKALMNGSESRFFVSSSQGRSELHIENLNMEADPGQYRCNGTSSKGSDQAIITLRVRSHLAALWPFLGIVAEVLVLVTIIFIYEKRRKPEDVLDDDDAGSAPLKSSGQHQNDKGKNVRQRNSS

[2] = biological target: T1, human BSG2 (basigin isoform 2) on the …; test: flow cytometry (FACS) on BAF3 cells expressing human BSG2
Description: (§1) Stable cell lines overexpressing cell-surface BSG2 or human tumor cell lines were harvested from tissue culture flasks, washed three times and resuspended in phosphate buffered saline (PBS) containing 1% bovine serum albumin and 1 mM CaCl₂ (FACS buffer). 5×10⁵ cells were incubated with antibodies at various concentrations in FACS buffer for 60 minutes on ice. Cells were washed twice and the bound murine monoclonal antibody was detected with a goat Fab′2 anti-mouse IgM+IgG+IgA (H+L) R-phycoerythrin-conjugated antibody (Southern Biotechnology Associates, Inc., Birmingham, Ala., Catalog No. 1012-08) diluted 1:500. Following incubation on ice (4° C., 60 minutes), cells were washed three times and resuspended in FACS buffer. Fluorescence was measured using a Becton Dickinson FACSCalibur-HTS (Becton Dickinson, San Jose, Calif., US). Data were analyzed using Graphpad Prism software and EC₅₀ values were reported as the concentration of antibody to achieve 50% of maximal BSG2 antibodies binding to BSG2 expressing cells.

[3] = biological target: T1, human BSG2 (basigin isoform 2) on the …; test: cell-based ECL (MSD) binding on whole cells expressing human BSG2
[4] = biological target: T2, purified recombinant human BSG2 extracellular domain (human, UniProt P35613 22-325); test: SPR (Biacore), mAb captured by anti-mouse Fc, BSG2 ECD injected, 25 C
T2 construct: also called Human BSG2 ECD
T2 sequence: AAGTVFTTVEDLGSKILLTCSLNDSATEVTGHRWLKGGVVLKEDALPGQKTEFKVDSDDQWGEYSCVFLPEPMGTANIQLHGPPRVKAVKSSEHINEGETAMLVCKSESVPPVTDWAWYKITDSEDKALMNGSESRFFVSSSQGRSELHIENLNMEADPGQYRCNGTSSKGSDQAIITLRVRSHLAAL
Description: (§2) Binding of BSG2 antibodies to a purified recombinant BSG2 extracellular domain (ECD) was determined by surface plasmon resonance-based measurements with a Biacore® instrument (either a Biacore 2000, Biacore 3000, or Biacore T100; GE Healthcare, Piscataway, N.J., US). The assay format for mAb affinity analysis was Fc-based capture via immobilized anti-Fc IgG. A standard amine coupling protocol was employed to immobilize Fc-specific IgG via primary amines to the carboxy-methyl (CM) dextran surface of CMS sensorchips. For the study of mouse anti-human BSG2 mAbs, anti-mouse Fc was used as the immobilized capture reagent. An automated protocol, available on the Biacore 2000, was used to immobilize 8000-10000RU of capture reagent in all 4 flowcells of the sensorchip. Binding was recorded as a function of time and kinetic rate constants were calculated. In this assay, on-rates as fast as 10⁷M⁻¹ s⁻¹ and off-rates as slow as 10⁻⁵ s⁻¹ can be measured.
(§3) Briefly, the CM-dextran surfaces were activated by freshly prepared 1:1 […] 3-(N,N-dimethylamino)propyl-N-ethylcarbodiimide (EDC). Then the anti-Fc IgG capture reagent (20 μg/ml in 10 mM sodium acetate, pH 4.5) was applied to the surface followed by deactivation of the surface and blocking of the residual reactive sites with 1M ethanolamine (pH 8.5). The running buffer employed was PBS-PB [1×PBS (Sigma P3813), pH 7.4, 0.005% P20 surfactant, 0.1 mg/ml BSA (Sigma-A7906)] and the assay temperature was 25° C. All reagents were diluted into running buffer to the specified concentrations. Each experimental cycle consisted of the following steps: (1) anti-BSG2 mAbs at 0.5 to 1 μg/ml were captured in flowcells 2, 3 or 4 to a level of 100-120RU. All measurements were referenced against flowcell 1 which had no captured anti-BSG2 mAb; (2) human BSG2 ECD was injected through all 4 flowcells, 240 μl at 80 μl/min. After the antigen injection, dissociation was monitored for 600 seconds at 80 μl/min; and (3) the anti-Fc capture surface was regenerated with 10 mM glycine, pH 1.5.
(§4) The BSG2 antibody binding affinities were determined by the BIACORE technology as described in Example 1.2. Table 10 represents the antibody binding kinetics against human and cynomolgus monkey BSG2 extracellular domain (ECD).

[5] = biological target: T1, human BSG2 (basigin isoform 2) on the …; test: receptor binding assay, Eu-labeled antibody on cells expressing human BSG2
Description: Cell lines expressing BSG2 were harvested and washed once in assay buffer (PBS, 0.1% BSA, 0.02% Na Azide, 10 mM EDTA) and resuspended to 5×10⁶ cells per mL. Serial 1:2 dilutions of ⁺³Eu-labeled anti-BSG2 antibody stock in assay buffer were made for final concentrations ranging from 1.6×10⁻⁸-7.7×10⁻¹² M, and a 4 mg/mL solution of unlabeled anti-BSG2 antibody was also prepared. To 96 well round bottom plates, 25 μl of ⁺³Eu-labeled antibody dilutions were added to 25 μl buffer (total counts), or 25 μl of unlabeled antibody were added to 25 μl buffer (background counts). 50 μl of cells at 2.5×10⁵ cells per well were then added to all samples, mixed gently, and incubated on ice for 1 hour. Cell bound antibody was then separated from unbound antibody by transferring 20 μL of the reaction mixture to Acrowell 96 well filter plates (Pall PN 5020), centrifuged for 5 min (2200 rpm), washed 3× with 150 μL cold assay buffer, and centrifuged for 5 min. Signal was determined by incubating samples with 150 μL/well of enhancement buffer and read using Envision. The specific counts were determined by subtracting the background counts (cells+labeled antibody+excess cold antibody) from the corresponding total counts (cells+labeled antibody) for each antibody concentration. The labeled antibody concentration versus total counts was analyzed using Graphpad Prism 4 to calculate Kd and Bmax values.
(§5) BSG2 antibody binding activities against whole cells expressing human or cynomolgus monkey BSG2 were assessed by ECL using MSD technology (described in Example 1.3) and the receptor binding assay (described in Example 1.4) and are shown in Table 11.

[6] = biological target: T1, human BSG2 (basigin isoform 2) on the …; test: flow cytometry (FACS) on HepG2 hepatocellular carcinoma cells (cell-surface BSG2)
Description: as §1

[7] = biological target: T3, cynomolgus monkey BSG2 on the cell surface (cynomolgus monkey); test: flow cytometry (FACS) on BAF3 cells expressing cynomolgus BSG2
T3 construct: whole, on cells; also called BAF3-cyno BSG2; Cyno BSG2
Description: as §1

[8] = biological target: T4, cynomolgus monkey BSG2 extracellular domain (cynomolgus monkey); test: SPR (Biacore), mAb captured by anti-mouse Fc, BSG2 ECD injected, 25 C
T4 construct: extracellular domain; also called Cynomolgus BSG2 ECD
Description: as §2, §3, §4

[9] = biological target: T3, cynomolgus monkey BSG2 on the cell …; test: cell-based ECL (MSD) binding on whole cells expressing cynomolgus BSG2
Description: Cells were plated at 25,000 cells/well in 25 μl PBS using 96 well MSD high binding plates (MSD, catalogue no. L11XB-3), and incubated at 37° C. for 1 hour. 25 μl/well of blocking solution (30% serum in PBS) was added to the plates for 30 minutes at room temperature with mild agitation. Plates were then incubated with 25 μl/well of BSG2 antibodies (10 μg/ml) diluted in assay buffer (10% serum in PBS) for 1 hour at room temperature with mild agitation, and then washed 3× with PBS. Goat anti-mouse or anti-human IgG sulfotag was added at 1 μg/ml for 1 hour with mild agitation, and plates were washed 3× with PBS. After the final wash, plates were incubated with 2×MSD surfactant-free read buffer (catalogue no. R92TD-2) and the signal was detected on a MSD SECTOR Imager 6000. Data were analyzed using Graphpad Prism software and EC₅₀ values were reported.
as §5

B1: mouse anti-human BSG2 monoclonal antibody SZ66-2D2-2A1 (antibody, mouse IgG2a, kappa, V domains shown)
VH: QVQLQQPGAEIVRPGASVKLSCKASGYTFTDYWMNWVKLRPGQGLEWIGIIDPSDSYASYNQKFKGKATLTVDESSSTAYMQLSSLTSEDSAVYYCARKSYYGGNYYYAMDYWGQGTSVTVSS
VL: EIVLTQSPALMAASPGEKVTITCSVSSSINSINLHWYRQKSETSPKPWIYGTSNLASGVPVRFSGSGSGTSYSLTISSMEAEDAATYYCQQWSSYPLTFGAGTKLELKR
notes: Hybridoma antibody, mouse IgG2a/kappa
[1]
  CDC assay (% killing at 10 µg/ml Ab), MiaPaCa-2 pancreatic cancer cells: 84 % killing
[2]
  EC50: 0.14 nM
[3]
  EC50: 0.3 nM
[4]
  Kd: 47 nM
  koff: 0.019 s⁻¹
  kon: 410000 M⁻¹ s⁻¹
[5]
  Kd: 0.15 nM
[6]
  EC50: 0.17 nM

B2: mouse anti-human BSG2 monoclonal antibody EB41-1F4-2C1 (antibody, mouse IgG1, V domains shown)
VH: EVKLEESGGGLVQPGGSMKLSCVASGFTFSNFWMDWVRQSPEKGLEWVAEIRLKSTNYATHYAESVKGRFTISRDDSKSSVYLQMNNLRAEDTGIYYCTATSTGYWGQGTTLTVSS
VL: SIVMTQSPKILLVSAGDRVTITCKASQSVSNDVAWYQQKPGQSPKLLIYYASNRYTGVPDRFTGSGYGTDFTFTISTVQAEDLAVYFCQQDYSSPYTFGGGTKLEIK
notes: Hybridoma antibody, mouse IgG1/kappa
[2]
  EC50: 0.2 nM
[7]
  EC50: 0.71 nM
[3]
  EC50: 0.4 nM
[4]
  Kd: 2.5 nM
  koff: 0.001 s⁻¹
  kon: 400000 M⁻¹ s⁻¹
[8]
  Kd: 1600 nM
  koff: 0.6 s⁻¹
  kon: 377000 M⁻¹ s⁻¹
[9]
  EC50: 16 nM
[5]
  Kd: 0.4 nM
[6]
  EC50: 0.17 nM
